From patent US20220403048A1, “BINDING MOLECULES TO ARGINASE II [ARG2]” (Cancer Research Technology Limited, priority 2019, published 2022) come the findings set out here.

Test [1] concerns the target T1, human ARG1 (Homo sapiens, UniProt P05089).
T1 construct: Avi tag (N); His10 (after a GGG linker) (C); made in house; host or cells: E. coli BL21 (DE3)
T1 sequence (P05089 with tags, fused parts or gaps): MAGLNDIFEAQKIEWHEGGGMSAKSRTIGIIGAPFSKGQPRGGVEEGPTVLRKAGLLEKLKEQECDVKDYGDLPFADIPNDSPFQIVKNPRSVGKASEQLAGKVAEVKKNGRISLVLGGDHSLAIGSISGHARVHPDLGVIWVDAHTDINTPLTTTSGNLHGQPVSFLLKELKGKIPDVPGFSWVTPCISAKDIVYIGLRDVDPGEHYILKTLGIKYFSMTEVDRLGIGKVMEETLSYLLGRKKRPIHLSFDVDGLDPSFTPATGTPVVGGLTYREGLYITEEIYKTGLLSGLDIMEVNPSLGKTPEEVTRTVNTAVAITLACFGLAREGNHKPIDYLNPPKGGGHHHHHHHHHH
Kind of test: Bio-Layer Interferometry (OctetRED) binding, human ARG1. Particulars: Fab analyte up to 120 nM, screening assay on anti-His surface. As to the method:
(§1) The affinity of binding between the Fab of C0020187 and human ARG2, cynomolgus ARG2 and human ARG1 was estimated using assays in which the biotinylated ARG antigen was captured on a streptavidin sensor tip. A fresh sensor tip was used for each measurement and no regeneration was used. A series of dilutions of the C0020187 Fab (3.25-240 nM) were individually placed in contact with the ligand surface for a sufficient amount of time to observe sensorgrams that could be fitted to an appropriate binding model with confidence (typically 5 minutes), followed by an appropriate length of dissociation time (typically 10 minutes). Blank reference (0 nM Fab) data were subtracted from each dataset to reduce the impact of any buffer artefacts or non-specific binding effects. An appropriate binding model was then fitted simultaneously to the data from each analyte titration using the Octet Evaluation software.
The binding of affinity-matured antibodies to human ARG1 was also tested on the OctetRED system using a screening assay which stably captures […] as the ligand on an anti-His surface. The Fabs were typically tested in an analyte range of 1.8 to 120 nM, with an association time of 5 minutes and a dissociation time of 10 minutes. Sensors were regenerated using 10 mM glycine pH 1.5 after each cycle.
Binding of the second-generation antibodies to human ARG was also tested on the OctetRED system using a screening assay which stably captures […] as the ligand on an anti-His surface. The Fabs were tested as analyte up to 120 nM, with an association time of 5 minutes and a dissociation time of 10 minutes. Sensors were regenerated using 10 mM glycine pH 1.5 after each cycle.
On the technique in general: In BLI a coated tip is dipped into the sample, and binding shifts an interference pattern.

Test [2] deals with T2, human ARG2 (Homo sapiens, UniProt P78540, E275H/R327K).
T2 construct: His10 (after a GGG linker) (C); made in house; host or cells: E. coli BL21 (DE3)
T2 sequence (P78540 23-354 E275H/R327K): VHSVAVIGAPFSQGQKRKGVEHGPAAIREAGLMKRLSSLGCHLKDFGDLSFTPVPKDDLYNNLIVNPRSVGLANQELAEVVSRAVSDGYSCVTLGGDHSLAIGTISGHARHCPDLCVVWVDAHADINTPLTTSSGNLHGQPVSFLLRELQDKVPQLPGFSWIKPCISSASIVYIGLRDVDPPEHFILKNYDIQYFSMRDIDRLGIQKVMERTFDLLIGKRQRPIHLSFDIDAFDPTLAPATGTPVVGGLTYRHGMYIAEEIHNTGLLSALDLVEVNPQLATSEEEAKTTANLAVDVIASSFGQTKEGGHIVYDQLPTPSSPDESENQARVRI
Description: Bio-Layer Interferometry (OctetRED) binding kinetics, human ARG2. Particulars: second-generation Fab; extended assay: association 10 min, dissociation 40 min, 0.47 to 30 nM, streptavidin surface with bio-ARG2.
Excerpt: The OctetRED (Pall ForteBio) instrument was used to assess the kinetic parameters of the interactions between C0020187 and recombinantly produced human ARG2, cynomolgus ARG2 and human ARG1. The Octet biosensor uses an optical analytical technique that analyses the interference pattern of white light reflected from two surfaces: a layer of immobilised protein on the sensor tip, and an internal reference layer. Any changes in binding at the biosensor tip result in a shift in interference pattern, which can be measured in real time. Molecules associating with or dissociating from ligands at the biosensor tip shift the interference pattern and generate a response on the Octet system which is recorded by the acquisition software.
Typically, a defined concentration of the analyte species is brought into contact with the coupled ligand and any binding is detected as an increased in signal (association phase). This is followed by a period of buffer rinse, during which dissociation of the analyte species from the surface immobilised ligand can be observed as a decrease in signal (dissociation phase). Repetition of this with a range of analyte concentrations provides data for the analysis of binding kinetics.
An Octet Kinetics Buffer (PBS containing 0.01% BSA and 0.002% Tween20) is typically used as the diluent buffer for the analyte samples and as the flow buffer during the dissociation phase. The experimental data is recorded over time as shift in interference pattern (nm) over time, which is directly proportional to the optical thickness at the biosensor tip, which in turn is an approximate measure of the mass of analyte bound. The proprietary Octet Data Analysis software package can then be used to process data and fit binding models to the data sets. Returned association (ka, M^−1 s^−1) and dissociation (kd, s^−1) rate constants allow calculation of dissociation (KD, M) affinity constants.
as §1
Example results for C0020187 are shown in Table 9, showing the association rate constants (ka), dissociation rate constants (kd) and dissociation constants (KD). These parameters were derived from a 1:1 binding fit to the data.
The affinities of the affinity-matured antibodies to human ARG2 were measured on the OctetRED system as described in section 1.15 using the streptavidin capture method. Typically, an analyte titration range of 1.8 to 120 nM was used.
The affinities of the second-generation antibodies to human ARG2 were measured on the OctetRED system. A screening assay which stably captures His-tagged ARG2 as the ligand on an anti-His surface was utilised to screen the second-generation candidates as Fabs at an analyte range of 1.8 to 120 nM, with an association time of 5 minutes and a dissociation time of 10 minutes. Sensors were regenerated using 10 mM glycine pH 1.5 after each cycle. Based on this assay, six candidates with estimated affinities in the sub-nanomolar range were identified, and they were further profiled using an extended assay which is more suitable for antibodies of high affinities. […]

B1: C0021180: anti-ARG2 antibody, VH SEQ ID NO: 332, VL SEQ ID NO: 337 (antibody, listed as Homo sapiens, V domains shown)
VH: EVQLLESGGGLVQPGGSLRLSCAASGFTFRYEVAAWVRQAPGKGLEWVSAISGPIPKGYYADSVKGRFTISRDNSKNTLYLQMNSLRAEDTAVYYCARLRADLGLYMDLWGRGTLVTVSS
VL: QSVLTQPPTVSAAPGRKVTISCSGSSSNIGDHHVSWYQQLPGAAPKLLIYDTDHMASGIPDRFSGSRSGTSATLGITGLQTGDEADYYCGTWDSSLSALVFGGGTKLTVL
modifications: C0021180
B1: the “Results, binding to human ARG1 (BLI)” value in test [1] is listed as “No binding observed”. In test [2], this molecule showed a ka of 278000 M⁻¹ s⁻¹ and a kd of 0.000122 s⁻¹.

B2: C0021181: anti-ARG2 antibody, VH SEQ ID NO: 342, VL SEQ ID NO: 347 (antibody, listed as Homo sapiens, V domains shown)
VH: EVQLLESGGGLVRPGGSLRLSCAASEFTFRYDYHVWVRQAPGKGLEWVSAISGSGGSTYYADSVKSRFTISRDNSKNTLYLQMNSLRAEDTAVYYCARLRADLGLYMDLWGRGTLVTVSS
VL: QSVLTQPPSVSAAPGQKVAVSCSGSSSNIGSHYVSWYQQLPGTAPKLLIYDNSERTSGIPDRFSGSKSGTSATLGITGLQTGDEADYYCGTWDELTSNLVFGGGTRLTVL
modifications: C0021181
For the molecule B2, the “Results, binding to human ARG1 (BLI)” value in test [1] is recorded as “No binding observed”. Besides, in test [2], the ka stood at 145000 M⁻¹ s⁻¹ and the kd is 4.17e-05 s⁻¹.
